Measured values published in paper PMC12698695 (Nature Communications, 2025).

Target: the molecule itself
Experiment: cryo-EM structure

B1: human PANX1 W74A mutant (natural protein)
chain: MAIAQLATEYVFSDFLLKEPTEPKFKGLRLELAVDKMVTCIAVGLPLLLISLAFAQEISIGTQISCFSPSSFSARQAAFVDSYCWAAVQQKNSLQSESGNLPLWLHKFFPYILLLFAILLYLPPLFWRFAAAPHICSDLKFIMEELDKVYNRAIKAAKSARDLDMRDGACSVPGVTENLGQSLWEVSESHFKYPIVEQYLKTKKNSNNLIIKYISCRLLTLIIILLACIYLGYYFSLSSLSDEFVCSIKSGILRNDSTVPDQFQCKLIAVGIFQLLSVINLVVYVLLAPVVVYTLFVPFRQKTDVLKVYEILPTFDVLHFKSEGYNDLSLYNLFLEENISEVKSYKCLKVLENIKSSGQGIDPMLLLTNLGMIKMDVVDGKTPMSAEMREEQGNQTAELQGMNIDSETKANNGEKNARQRLLDSSC
B1: binds.
